Source: PMC3378326 (Structure(London, England:1993), 2012)
One block for each binder: values may come before it.

What was measured:
FGF1 = FGF1 (UniProt P05230 1-155); test: SPR
FGF8b = test: SPR

Chain of FGF1 (P05230 whole entry): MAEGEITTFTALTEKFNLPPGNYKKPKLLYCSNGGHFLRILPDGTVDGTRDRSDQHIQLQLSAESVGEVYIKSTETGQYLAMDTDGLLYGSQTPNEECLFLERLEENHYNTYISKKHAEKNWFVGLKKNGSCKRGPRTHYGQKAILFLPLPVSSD

- Kd (FGF1): 265 nM
- Kd (FGF8b): 390 nM
B1: D1-D2-D3^ΔAB (FGFR1c) (domain or fragment)
chain: RPSPTLPEQAQPWGAPVEVESFLVHPGDLLQLRCRLRDDVQSINWLRDGVQLAESNRTRITGEEVEVQDSVPADSGLYACVTSSPSGSDTTYFSVNVSDALPSSKETDNTKPNRMPVAPYWTSPEKMEKKLHAVPAAKTVKFKCPSSGTPNPTLRWLKNGKEFKPDHRIGGYKVRYATWSIIMDSVVPSDKGNYTCIVENEYGSINHTYQLDVVERSPHRPILQAGLPANKTVALGSNVEFMCKVYSDPQPHIQWLKHIEVNGSKIGPDNLPYVQILKTAGVNTTDKEMEVLHLRNVSFEDAGEYTCLAGNSIGLSHHSAWLTVLEALEERPAVMTSPLYLE

- Kd (FGF1): 268 nM
- Kd (FGF8b): 329 nM
B2: D1-AB13ALA-D2-D3 (FGFR1c) (domain or fragment)
chain: RPSPTLPEQAQPWGAPVEVESFLVHPGDLLQLRCRLRDDVQSINWLRDGVQLAESNRTRITGEEVEVQDSVPADSGLYACVTSSPSGSDTTYFSVNVSDALPSSAAAAAAAAAAAAAKETDNTKPNRMPVAPYWTSPEKMEKKLHAVPAAKTVKFKCPSSGTPNPTLRWLKNGKEFKPDHRIGGYKVRYATWSIIMDSVVPSDKGNYTCIVENEYGSINHTYQLDVVERSPHRPILQAGLPANKTVALGSNVEFMCKVYSDPQPHIQWLKHIEVNGSKIGPDNLPYVQILKTAGVNTTDKEMEVLHLRNVSFEDAGEYTCLAGNSIGLSHHSAWLTVLEALEERPAVMTSPLYLE
